Experimental data from PMC13241479, “GPLD1 is a scavenger carrier mediating lysosomal degradation of extracellular aberrant proteins” (Life Science Alliance, 2026).

T1: GPLD1-mCherry-sfGFP-His (glycosylphosphatidylinositol-specific phospholipase D1) (human, UniProt P80108 24-840)
T1 construct: glycosylphosphatidylinositol-specific phospholipase D1, human, full-length cDNA amplified from HepG2 cells; fusion of about 160 kD; also called GPLD1-RG; GPLD1-RFP-GFP; not shown: mCherry, C-terminal, kept; sfGFP, C-terminal, kept; His, C-terminal, kept
T1 sequence (looked up): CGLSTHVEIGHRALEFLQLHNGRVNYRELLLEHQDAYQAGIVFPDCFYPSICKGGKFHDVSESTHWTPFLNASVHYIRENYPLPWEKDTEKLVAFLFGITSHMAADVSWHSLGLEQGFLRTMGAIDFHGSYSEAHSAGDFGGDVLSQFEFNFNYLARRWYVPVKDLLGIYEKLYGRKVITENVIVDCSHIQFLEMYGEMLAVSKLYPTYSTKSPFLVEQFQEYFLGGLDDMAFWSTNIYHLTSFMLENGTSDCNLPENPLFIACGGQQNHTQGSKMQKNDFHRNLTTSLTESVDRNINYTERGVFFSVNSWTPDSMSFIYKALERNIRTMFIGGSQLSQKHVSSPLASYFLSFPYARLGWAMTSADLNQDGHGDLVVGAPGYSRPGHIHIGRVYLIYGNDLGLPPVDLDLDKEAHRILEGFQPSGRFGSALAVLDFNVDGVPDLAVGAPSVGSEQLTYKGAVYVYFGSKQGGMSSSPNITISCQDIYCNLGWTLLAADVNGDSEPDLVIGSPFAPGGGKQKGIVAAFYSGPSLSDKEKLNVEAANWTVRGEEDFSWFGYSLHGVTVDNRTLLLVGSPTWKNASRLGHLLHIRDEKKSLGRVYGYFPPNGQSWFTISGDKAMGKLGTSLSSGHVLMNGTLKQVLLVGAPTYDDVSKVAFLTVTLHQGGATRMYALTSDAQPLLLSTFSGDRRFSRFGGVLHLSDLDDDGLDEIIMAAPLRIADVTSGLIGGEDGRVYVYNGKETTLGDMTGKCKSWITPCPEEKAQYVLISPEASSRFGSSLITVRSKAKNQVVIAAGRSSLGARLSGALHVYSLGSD


Molecular target: T1, GPLD1-mCherry-sfGFP-His …
Experiment: co-IP; purified GPLD1-RG (40 nM) or clusterin-RG mixed with His-ALFA-SAA1 (500 nM) or ALFA-tagged Ab42 in PBS, 37°C with shaking for 2 h; aggregates removed at 20,000g; ALFA nanobody beads 2 h at 4°C; washed four times with PBS; immunoblot
Settings: both partners purified

binding result | Binder
binds | His-ALFA-SAA1-N terminus (human SAA1 19-94 aa) (domain or fragment, UniProt P0DJI8 19-94, looked up, serum amyloid A1, human, residues 19-94; the N-terminal 76 aa residues, the core amyloidogenic fragment; Prepared in 8 M urea-denatured form for all experiments; aggregates on dilution into PBS; also called His-ALFA-tagged SAA1-N; source: E. coli BL21(DE3) pLysS, purified from inclusion bodies under denaturing conditions (8 M urea, Co-NTA); not shown: His, N-terminal, kept; ALFA, N-terminal, kept) RSFFSFLGEAFDGARDMWRAYSDMREANYIGSDKYFHARGNYDAAKRGPGGAWAAEVITDARENIQRFFGHGAEDS
binds | His-ALFA-SAA1-Full length (human SAA1 19-122 aa) (natural protein, UniProt P0DJI8 19-122, looked up, The purification of the native full-length form is not described in the methods (only SAA1-N and Ab42 from inclusion bodies); source: E. coli BL21(DE3) pLysS, recombinant, used native; not shown: His, N-terminal, kept; ALFA, N-terminal, kept) RSFFSFLGEAFDGARDMWRAYSDMREANYIGSDKYFHARGNYDAAKRGPGGAWAAEVITDARENIQRFFGHGAEDSLADQAANEWGRSGKDPNHFRPAGLPEKY
